This note sets out measurements from article PMC10885436, “A novel AA14 LPMO from Talaromyces rugulosus with bifunctional cellulolytic/hemicellulolytic activity boosted cellulose hydrolysis” (Biotechnology for Biofuels and Bioproducts, 2024).

Substrate in this data set: COc1cccc(OC)c1O
The data set is described as follows: purified protein. It is filed as biochemical, Talaromyces rugulosus. The note with it: co-substrate H2O2 fixed at 100 uM (below its Km, authors call kinetics insufficient), Cu(II)-saturated enzyme, 100 mM sodium phosphate pH 7.0, 37 C.

B1: TrAA14A (Talaromyces rugulosus) (protein)
chain: HVVAWHPGMYCLGGNDTSVDDPNTNLAVNPLWDLPKSKWWFQADRGCDKAPPVDGVFLELPAGQNFTTELAHNRAQTTLSFNGQYAGEWPDGKDHPEDWSGTGTPPGCIQDDGAIHTNNQTMAGGTVFAISYQSDMSQVTMENLVVFSVLEHTPWKRIATYEVPADLPPCPDAGCICAWGWVPQGCGEPNMYMAGYKCKVTGSSSTKQLAQAQVPKYCANDTSECVGGAKQILVMNQADGNNVVAPDNDFVAYNEKWGFQNGAQNDIFM
notes: about 60 kDa glycosylated, about 30 kDa after Endo H; no dCTR
With B1, the Km amounted to 790 µM and the kcat was 1.32 s⁻¹.

As usually defined, the Km is the substrate concentration at which the rate is half of its maximum. Usually kcat stands for the maximal rate divided by the concentration of active sites.
